Consider 1 molecule from patent US8415393B2, “Anti-bacterial drug targeting of genome maintenance interfaces” (Wisconsin Alumni Research Foundation, priority 2007, dated 2013).

One experiment has as its target T1, E. coli Exonuclease I (Escherichia coli, UniProt P04995 1-475).
T1 construct: also called ExoI; Exol
T1 sequence: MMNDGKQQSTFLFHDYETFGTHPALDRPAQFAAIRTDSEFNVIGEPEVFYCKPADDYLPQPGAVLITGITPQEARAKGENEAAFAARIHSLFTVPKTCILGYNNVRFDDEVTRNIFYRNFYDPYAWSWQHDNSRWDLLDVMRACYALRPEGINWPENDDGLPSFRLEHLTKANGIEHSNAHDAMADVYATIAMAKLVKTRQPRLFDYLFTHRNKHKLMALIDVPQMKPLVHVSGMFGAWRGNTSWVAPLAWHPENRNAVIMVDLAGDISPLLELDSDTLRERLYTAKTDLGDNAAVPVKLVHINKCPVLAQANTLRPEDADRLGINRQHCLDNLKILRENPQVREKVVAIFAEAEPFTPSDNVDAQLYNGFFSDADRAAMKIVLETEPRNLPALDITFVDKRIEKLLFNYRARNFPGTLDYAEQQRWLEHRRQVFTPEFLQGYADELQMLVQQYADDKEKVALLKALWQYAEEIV
Description: fluorescence anisotropy equilibrium binding (Kd,app), ExoI titrated into fluorescein-labeled peptide. Background: Fluorescence polarisation rises when a labelled molecule tumbles more slowly, as on binding a larger partner.

Another experiment deals with T2, ExoI Tyr207Ala variant (Escherichia coli, UniProt P04995 1-475).
T2 construct: also called Y207A; Tyr207 variant
T2 sequence: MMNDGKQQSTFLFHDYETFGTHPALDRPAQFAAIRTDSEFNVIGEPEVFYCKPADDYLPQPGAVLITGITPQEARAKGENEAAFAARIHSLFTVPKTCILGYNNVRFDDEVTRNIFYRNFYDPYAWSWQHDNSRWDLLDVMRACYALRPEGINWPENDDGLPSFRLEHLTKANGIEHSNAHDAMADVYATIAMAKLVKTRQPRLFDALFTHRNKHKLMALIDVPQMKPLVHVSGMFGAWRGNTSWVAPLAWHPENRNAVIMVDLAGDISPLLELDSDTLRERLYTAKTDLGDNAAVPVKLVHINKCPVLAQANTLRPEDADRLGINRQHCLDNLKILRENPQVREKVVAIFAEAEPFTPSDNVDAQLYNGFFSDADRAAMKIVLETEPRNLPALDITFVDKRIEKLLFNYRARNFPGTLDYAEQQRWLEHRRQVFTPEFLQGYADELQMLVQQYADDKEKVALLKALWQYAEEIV
Description: fluorescence anisotropy equilibrium binding (Kd,app), ExoI variant titrated into fluorescein-labeled peptide.

For a further experiment, the target named is T3, ExoI Gln448Ala variant (Escherichia coli, UniProt P04995 1-475).
T3 construct: helical domain residue; also called Q448A; Gln448 variant
T3 sequence: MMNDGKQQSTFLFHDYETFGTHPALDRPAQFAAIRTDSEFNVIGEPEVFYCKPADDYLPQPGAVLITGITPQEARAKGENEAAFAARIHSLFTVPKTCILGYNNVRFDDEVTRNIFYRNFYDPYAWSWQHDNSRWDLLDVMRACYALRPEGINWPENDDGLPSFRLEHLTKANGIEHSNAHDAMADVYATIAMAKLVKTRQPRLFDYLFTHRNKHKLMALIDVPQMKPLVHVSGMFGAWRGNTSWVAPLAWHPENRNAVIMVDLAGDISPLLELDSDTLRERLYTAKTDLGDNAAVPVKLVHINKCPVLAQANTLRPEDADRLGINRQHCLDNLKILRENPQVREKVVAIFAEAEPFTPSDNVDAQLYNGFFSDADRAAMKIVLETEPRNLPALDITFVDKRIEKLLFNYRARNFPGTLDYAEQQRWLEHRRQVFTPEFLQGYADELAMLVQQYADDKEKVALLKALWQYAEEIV
The description is as above.

In a further experiment the target is T4, ExoI Arg316Ala variant (Escherichia coli, UniProt P04995 1-475).
T4 construct: residue flanks peptide A; also called R316A; Arg316 variant
T4 sequence: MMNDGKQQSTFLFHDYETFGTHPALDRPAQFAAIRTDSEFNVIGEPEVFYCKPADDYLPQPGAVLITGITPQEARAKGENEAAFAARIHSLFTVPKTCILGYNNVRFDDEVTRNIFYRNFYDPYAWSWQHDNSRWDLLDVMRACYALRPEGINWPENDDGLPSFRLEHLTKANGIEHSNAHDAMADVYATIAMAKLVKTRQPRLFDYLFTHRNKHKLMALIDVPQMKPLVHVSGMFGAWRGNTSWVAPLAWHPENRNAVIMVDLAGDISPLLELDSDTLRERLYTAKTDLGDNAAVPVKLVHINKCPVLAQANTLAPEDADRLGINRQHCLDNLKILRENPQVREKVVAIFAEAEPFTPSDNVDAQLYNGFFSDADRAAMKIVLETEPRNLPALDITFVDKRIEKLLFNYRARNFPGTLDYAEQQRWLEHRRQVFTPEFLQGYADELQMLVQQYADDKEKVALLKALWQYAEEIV
Described as above.

The next experiment concerns the target T5, ExoI Gln311Ala variant (Escherichia coli, UniProt P04995 1-475).
T5 construct: also called Q311A; Gln311 variant
T5 sequence: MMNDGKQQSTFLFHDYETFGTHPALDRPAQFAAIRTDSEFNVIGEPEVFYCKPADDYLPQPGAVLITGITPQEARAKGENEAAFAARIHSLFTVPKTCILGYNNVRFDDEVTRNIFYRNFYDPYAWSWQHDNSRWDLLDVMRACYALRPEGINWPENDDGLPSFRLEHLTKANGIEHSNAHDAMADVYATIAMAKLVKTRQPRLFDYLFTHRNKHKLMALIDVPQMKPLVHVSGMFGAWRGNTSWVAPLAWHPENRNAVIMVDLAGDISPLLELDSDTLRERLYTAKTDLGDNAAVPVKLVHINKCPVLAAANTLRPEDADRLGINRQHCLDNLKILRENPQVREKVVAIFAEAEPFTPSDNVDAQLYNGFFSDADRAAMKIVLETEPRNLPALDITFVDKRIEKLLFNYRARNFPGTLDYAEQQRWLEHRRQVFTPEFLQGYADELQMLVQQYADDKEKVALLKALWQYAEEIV
Described as above.

Where no end group is shown, it is not given here. fluorescein = fluorescein moiety attached to the N-terminus of the peptide (N-terminal fluorescein label) A value given as a limit tells only on which side of the number the result lay.

B1: fluorescein-labeled SSB C-terminal peptide (fluorescein-WMDFDDDIPF) (peptide)
peptide: fluorescein-WMDFDDDIPF
notes: also called F-SSB-Ct; F-WT
As to B1, the Kd was 136 nM with E. coli Exonuclease I; greater than 1000 nM with ExoI Tyr207Ala variant; 181 nM with ExoI Gln448Ala variant; greater than 1000 nM in the experiment with ExoI Arg316Ala variant; 304 nM in the experiment with ExoI Gln311Ala variant.
